Measurements from PMC12316982 (Nature Communications, 2025).
Positions count from the first letter of the chain named.

B1: NCS.1.1 (human IgG1) (antibody, V domains shown)
VH: QVQLQESGPRLVKPSETLSLTCSVSGESISSGGYYWTWIRQHPGKGLEWIGNIFDTGSTDYSPSLKTRLTISIDTSKNQFYLRLNSATAADTAVYYCARVGFSLETDRPYYLGLDVWGQGTTVTVSS
VL: DIVMTQSPLSLPVTPGEPASISCRSSQSLLHSNGYTYLDWYLQKPGQSPQLLISFTSNRASGVPDRFSGSGSGTYFTLKISRVEAEDVGVYYCMQAVQTPWTFGQGTKVEIK
B2: NCS.1.3 (human IgG1) (antibody, V domains shown)
VH: B1 VH with N85T
VL: B1 VL with S10T, S54Y, T56A, T99S
B3: NCS.1 (human IgG1) (antibody, V domains shown)
VH: B1 VH with Q5P, D60H, F102Y, L112F
VL: B1 VL with S54Y, F55L, T56A

Target: unmodified NA of A/Vietnam/1203/2004 (VN04, H5N1) (Influenza A virus A/Vietnam/1203/2004 …, UniProt Q6DPL2, strain)
Assay: ELISA
Settings: both partners purified

| Binder | binding result |
| --- | --- |
| B1 | binds |
| B2 | binds |
| B3 | binds |
